Test results from patent US20170369572A1.

Molecular target: human CD47 on CCRF-CEM cells (human) (UniProt Q08722)
Experiment: flow cytometry on CCRF-CEM cells, MFI against concentration, one site specific binding with Hill slope

Kd: 16 nM
B1: B6H12, mu anti-hu CD47 (antibody, from another filing, V domains shown)
VH: EVQLVESGGDLVKPGGSLKLSCAASGFTFSGYGMSWVRQTPDKRLEWVATITSGGTYTYYPDSVKGRFTISRDNAKNTLYLQIDSLKSEDTAIYFCARSLAGNAMDYWGQGTSVTVSS
VL: DIVMTQSPATLSVTPGDRVSLSCRASQTISDYLHWYQQKSHESPRLLIKFASQSISGIPSRFSGSGSGSDFTLSINSVEPEDVGVYYCQNGHGFPRTFGGGTKLEIK
